Data on 94 variants can be found in the supplement of paper PMC10567573.

The labels stand for the following.
B1: CPXM2 (parent)
chain: EILGCPLPDPNNYYHRRNEMTTTD
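Note: lentivirally expressed fusions sorted by FACS into six bins by GFP to DsRed ratio, PSI derived from sequencing read proportions per bin multiplied by bin number.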

Variants of B1 are the subject of this data set. The data set is described as follows: protein stability index of a GFP-peptide fusion (GPS, HEK-293T) (PSI 1-6); higher = more stable. To be noted: c terminus: a fixed tail appended.
For the variant EILGCPLPDPNNYYHRRNEMTTDD [T23D], the protein stability index came out at 3.85.

Regarding EILGCPLPDPNNYYHRRNEMTTND [T23N], the protein stability index amounted to 3.48. For EILGCPLPDPNNYYHRRNEMTTAD [T23A] the value was 3.65; for EILGCPLPDPNNYYHRRNEMTTCD [T23C], 3.8; for EILGCPLPDPNNYYHRRNEMTTMD [T23M], 2.78.

With EILGCPLPDPNNYYHRRNEMTTLD [T23L], the protein stability index was 3.07.

For the variant EILGCPLPDPNNYYHRRNEMTTRD [T23R], the protein stability index amounted to 3.37. The value for EILGCPLPDPNNYYHRRNEMTTPD [T23P] was 3.67; that for EILGCPLPDPNNYYHRRNEMTTID [T23I] was 3.55. For EILGCPLPDPNNYYHRRNEMTTKD [T23K] the value was 3.46.

With EILGCPLPDPNNYYHRRNEMTTHD [T23H], the protein stability index came to 3.6. In the case of EILGCPLPDPNNYYHRRNEMTTED [T23E], the protein stability index is 4.3. For EILGCPLPDPNNYYHRRNEMTTVD [T23V] the value was 2.85; for EILGCPLPDPNNYYHRRNEMTTQD [T23Q], 3.54; for EILGCPLPDPNNYYHRRNEMTTYD [T23Y], 3.13. Regarding EILGCPLPDPNNYYHRRNEMTTWD [T23W], the protein stability index was 2.48. For EILGCPLPDPNNYYHRRNEMTTGD [T23G] the value was 3.29. The value for EILGCPLPDPNNYYHRRNEMTTFD [T23F] was 2.43; that for EILGCPLPDPNNYYHRRNEMTTSD [T23S] was 3.39; that for EILGCPLPDPNNYYHRRNEQTTTD [M20Q] was 4.42.

For the variant EILGCPLPDPNNYYHRRNEPTTTD [M20P], the protein stability index worked out at 3.92. For the variant EILGCPLPDPNNYYHRRNENTTTD [M20N], the protein stability index was found to be 3.92. For EILGCPLPDPNNYYHRRNEETTTD [M20E] the value was 4.59. The value for EILGCPLPDPNNYYHRRNEDTTTD [M20D] was 4.35. As to EILGCPLPDPNNYYHRRNETTTTD [M20T], the protein stability index turned out to be 4.6. The value for EILGCPLPDPNNYYHRRNERTTTD [M20R] was 3.57; that for EILGCPLPDPNNYYHRRNEGTTTD [M20G] was 4.6; that for EILGCPLPDPNNYYHRRNESTTTD [M20S] was 3.98.

EILGCPLPDPNNYYHRRNEWTTTD [M20W]: the protein stability index was determined as 3.12.

With EILGCPLPDPNNYYHRRNEITTTD [M20I], the protein stability index came to 3.69.

On to EILGCPLPDPNNYYHRRNEHTTTD [M20H], for which the protein stability index is 3.69. The value for EILGCPLPDPNNYYHRRNEATTTD [M20A] was 3.99. The value for EILGCPLPDPNNYYHRRNECTTTD [M20C] was 3.69. As to EILGCPLPDPNNYYHRRNEKTTTD [M20K], the protein stability index was found to be 3.53. The value for EILGCPLPDPNNYYHRRNEYTTTD [M20Y] was 2.46. The value for EILGCPLPDPNNYYHRRNEFTTTD [M20F] was 2.98. For EILGCPLPDPNNYYHRRNEVTTTD [M20V] the value was 3.7; for EILGCPLPDPNNYYHRRNELTTTD [M20L], 2.95. With EILGCPLPDPNNYYHRRNAMTTTD [E19A], the protein stability index worked out at 2.89.

Regarding EILGCPLPDPNNYYHRRNYMTTTD [E19Y], the protein stability index came to 2.6. The value for EILGCPLPDPNNYYHRRNWMTTTD [E19W] was 2.09. As to EILGCPLPDPNNYYHRRNLMTTTD [E19L], the protein stability index came out at 2.22. For EILGCPLPDPNNYYHRRNGMTTTD [E19G] the value was 3.59; for EILGCPLPDPNNYYHRRNTMTTTD [E19T], 2.95; for EILGCPLPDPNNYYHRRNNMTTTD [E19N], 3.3. The value for EILGCPLPDPNNYYHRRNDMTTTD [E19D] was 3.62. For EILGCPLPDPNNYYHRRNVMTTTD [E19V] the value was 2.71; for EILGCPLPDPNNYYHRRNQMTTTD [E19Q], 3.31; for EILGCPLPDPNNYYHRRNFMTTTD [E19F], 2.62. As to EILGCPLPDPNNYYHRRNHMTTTD [E19H], the protein stability index is 3.1. For EILGCPLPDPNNYYHRRNMMTTTD [E19M] the value was 2.48; for EILGCPLPDPNNYYHRRNPMTTTD [E19P], 2.86; for EILGCPLPDPNNYYHRRNCMTTTD [E19C], 2.8.

Take EILGCPLPDPNNYYHRRNSMTTTD [E19S]: the protein stability index was found to be 3.46. The value for EILGCPLPDPNNYYHRRNKMTTTD [E19K] was 2.83; that for EILGCPLPDPNNYYHRRNRMTTTD [E19R] was 3.16; that for EILGCPLPDPNNYYHRRNIMTTTD [E19I] was 2.19. The value for EILGCPLPDPNNYYHRRKEMTTTD [N18K] was 3.57. For EILGCPLPDPNNYYHRRAEMTTTD [N18A] the value was 3.3. Regarding EILGCPLPDPNNYYHRRWEMTTTD [N18W], the protein stability index was 2.16. Turning to EILGCPLPDPNNYYHRRLEMTTTD [N18L], the protein stability index is 2.51.

With EILGCPLPDPNNYYHRRFEMTTTD [N18F], the protein stability index stood at 2.41.

For the variant EILGCPLPDPNNYYHRRREMTTTD [N18R], the protein stability index stood at 3.19. The value for EILGCPLPDPNNYYHRRQEMTTTD [N18Q] was 3.7; that for EILGCPLPDPNNYYHRRCEMTTTD [N18C] was 3.59.

As for EILGCPLPDPNNYYHRRSEMTTTD [N18S], the protein stability index was found to be 3.26. On to EILGCPLPDPNNYYHRRIEMTTTD [N18I], for which the protein stability index turned out to be 2.79. As to EILGCPLPDPNNYYHRRPEMTTTD [N18P], the protein stability index was found to be 3.21.

As for EILGCPLPDPNNYYHRRYEMTTTD [N18Y], the protein stability index was found to be 2.67. Take EILGCPLPDPNNYYHRRVEMTTTD [N18V]: the protein stability index came to 2.77. With EILGCPLPDPNNYYHRRHEMTTTD [N18H], the protein stability index was found to be 3.37. The value for EILGCPLPDPNNYYHRRDEMTTTD [N18D] was 4.23. Take EILGCPLPDPNNYYHRRGEMTTTD [N18G]: the protein stability index amounted to 3.77. The value for EILGCPLPDPNNYYHRRMEMTTTD [N18M] was 2.91; that for EILGCPLPDPNNYYHRREEMTTTD [N18E] was 4.01. For EILGCPLPDPNNYYHRRTEMTTTD [N18T] the value was 3.6; for EILGCPLPDPNNYYHRRNEMRTTD [T21R], 3.05. For EILGCPLPDPNNYYHRRNEMATTD [T21A] the value was 3.6; for EILGCPLPDPNNYYHRRNEMLTTD [T21L], 2.97; for EILGCPLPDPNNYYHRRNEMDTTD [T21D], 4.25. For the variant EILGCPLPDPNNYYHRRNEMWTTD [T21W], the protein stability index was 1.65.

Take EILGCPLPDPNNYYHRRNEMETTD [T21E]: the protein stability index is 4.27.

As to EILGCPLPDPNNYYHRRNEMMTTD [T21M], the protein stability index turned out to be 3.23.

Consider EILGCPLPDPNNYYHRRNEMHTTD [T21H], for which the protein stability index came to 2.91. Consider EILGCPLPDPNNYYHRRNEMGTTD [T21G], for which the protein stability index was determined as 3.55. The value for EILGCPLPDPNNYYHRRNEMFTTD [T21F] was 2.77; that for EILGCPLPDPNNYYHRRNEMYTTD [T21Y] was 2.81.

For EILGCPLPDPNNYYHRRNEMSTTD [T21S], the protein stability index is 3.52. For EILGCPLPDPNNYYHRRNEMQTTD [T21Q] the value was 3.6; for EILGCPLPDPNNYYHRRNEMCTTD [T21C], 2.92. For EILGCPLPDPNNYYHRRNEMPTTD [T21P] the value was 3.08; for EILGCPLPDPNNYYHRRNEMITTD [T21I], 2.77. For EILGCPLPDPNNYYHRRNEMKTTD [T21K] the value was 4.37; for EILGCPLPDPNNYYHRRNEMNTTD [T21N], 3.45.
